According to the Human Domainome abundance scans (Beltran et al. 2025):
± gives the uncertainty stated by the source.

B1: Gamma-crystallin C, residues 4 to 79; numbered along this chain, P07315 (parent)
chain: ITFYEDRAFQGRSYETTTDCPNLQPYFSRCNSIRVESGCWMLYERPNYQGQQYLLRRGEYPDYQQWMGLSDSIRSC

Variants of: B1
Test: abundance fitness (aPCA) (normalised: wild type 0, dead -1); higher = more abundant; growth selection in yeast, the domain comes from the species named
Conditions: Homo sapiens

Row | Variant | abundance fitness
1 | ITFYEDRAFQGRSYETTTDCPNLQPYFSRCNSIRVESGCWMLYERPNYQGQQYLLRRGEYPDYQWWMGLSDSIRSC [Q65W] | -0.119 ± 0.062
2 | ITFYEDRAFQGRSYETTTDCPNLQPYFSRCNSIRVESGCWMLYERPNYQGQQYLLRRGEYPDYQCWMGLSDSIRSC [Q65C] | 0 ± 0.11
3 | ITFYEDRAFQGRSYETTTDCPNLQPYFSRCNSIRVESGCWMLYERPNYQGQQYLLRRGEYPDYQVWMGLSDSIRSC [Q65V] | -0.041 ± 0.09
4 | ITFYEDRAFQGRSYETTTDCPNLQPYFSRCNSIRVESGCWMLYERPNYQGQQYLLRRGEYPDYQQWMSLSDSIRSC [G68S] | 0.014 ± 0.052
5 | ITFYEDRAFQGRSYETTTDCPNLQPYFSRCNSIRVESGCWMLYERPNYQGQQYLLRRGEYPDYQQWMWLSDSIRSC [G68W] | 0.003 ± 0.08
6 | ITFYEDRAFQGRSYETTTDCPNLQPYFSRCNSIRVESGCWMLYERPNYQGQQYLLRRGEYPDYQQWMRLSDSIRSC [G68R] | 0.079 ± 0.043
7 | ITFYEDRAFQGRSYETTTDCPNLQPYFSRCNSIRVESGCWMLYERPNYQGQQYLLRRGEYPDYQQWMDLSDSIRSC [G68D] | -0.042 ± 0.13
8 | ITFYEDRAFQGRSYETTTDCPNLQPYFSRCNSIRVESGCWMLYERPNYQGQQYLLRRGEYPDYQQWMELSDSIRSC [G68E] | -0.062 ± 0.12
9 | ITFYEDRAFQGRSYETTTDCPNLQPYFSRCNSIRVESGCWMLYERPNYQGQQYLLRRGEYPDYQQWMTLSDSIRSC [G68T] | 0.068 ± 0.076
10 | ITFYEDRAFQGRSYETTTDCPNLQPYFSRCNSIRVESGCWMLYERPNYQGQQYLLRRGEYPDYQQWMKLSDSIRSC [G68K] | 0.028 ± 0.088
11 | ITFYEDRAFQGRSYETTTDCPNLQPYFSRCNSIRVESGCWMLYERPNYQGQQYLLRRGEYPDYQQWMPLSDSIRSC [G68P] | -0.02 ± 0.069
12 | ITFYEDRAFQGRSYETTTDCPNLQPYFSRCNSIRVESGCWMLYERPNYQGQQYLLRRGEYPDYQQWMLLSDSIRSC [G68L] | -0.027 ± 0.048
13 | ITFYEDRAFQGRSYETTTDCPNLQPYFSRCNSIRVESGCWMLYERPNYQGQQYLLRRGEYPDYQQWMYLSDSIRSC [G68Y] | 0.097 ± 0.089
14 | ITFYEDRAFQGRSYETTTDCPNLQPYFSRCNSIRVESGCWMLYERPNYQGQQYLLRRGEYPDYQQWMVLSDSIRSC [G68V] | 0.007 ± 0.065
15 | ITFYEDRAFQGRSYETTTDCPNLQPYFSRCNSIRVESGCWMLYERPNYQGQQYLLRRGEYPDYQQWMALSDSIRSC [G68A] | 0.003 ± 0.073
16 | ITFYEDRAFQGRSYETTTDCPNLQPYFSRCNSIRVESGCWMLYERPNYQGQQYLLRRGEYPDYQQWMCLSDSIRSC [G68C] | 0.117 ± 0.083
17 | ITFYEDRAFQGRSYETTTDCPNLQPYFSRCNSIRVESGCWMLYERPNYQGQQYLLRRGEYPDYQQWMQLSDSIRSC [G68Q] | -0.018 ± 0.083
18 | ITFYEDRAFQGRSYETTTDCPNLQPYFSRCNSIRVESGCWMLYERPNYQGQQYLLRRGEYPDYQQWMNLSDSIRSC [G68N] | -0.053 ± 0.14

Row | Variant | abundance fitness
19 | ITFYEDRAFQGRSYETTTDCPNLQPYFSRCNSIRVESGCWMLYERPNYQGQQYLLRRGEYPDYQQWGGLSDSIRSC [M67G] | -0.113 ± 0.06
20 | ITFYEDRAFQGRSYETTTDCPNLQPYFSRCNSIRVESGCWMLYERPNYQGQQYLLRRGEYPDYQQWQGLSDSIRSC [M67Q] | -0.042 ± 0.15
21 | ITFYEDRAFQGRSYETTTDCPNLQPYFSRCNSIRVESGCWMLYERPNYQGQQYLLRRGEYPDYQQWEGLSDSIRSC [M67E] | -0.131 ± 0.081
22 | ITFYEDRAFQGRSYETTTDCPNLQPYFSRCNSIRVESGCWMLYERPNYQGQQYLLRRGEYPDYQQWKGLSDSIRSC [M67K] | -0.043 ± 0.15
23 | ITFYEDRAFQGRSYETTTDCPNLQPYFSRCNSIRVESGCWMLYERPNYQGQQYLLRRGEYPDYQQWTGLSDSIRSC [M67T] | -0.018 ± 0.077
24 | ITFYEDRAFQGRSYETTTDCPNLQPYFSRCNSIRVESGCWMLYERPNYQGQQYLLRRGEYPDYQQWRGLSDSIRSC [M67R] | -0.005 ± 0.072
25 | ITFYEDRAFQGRSYETTTDCPNLQPYFSRCNSIRVESGCWMLYERPNYQGQQYLLRRGEYPDYQQWFGLSDSIRSC [M67F] | -0.091 ± 0.093
26 | ITFYEDRAFQGRSYETTTDCPNLQPYFSRCNSIRVESGCWMLYERPNYQGQQYLLRRGEYPDYQQWAGLSDSIRSC [M67A] | -0.03 ± 0.057
27 | ITFYEDRAFQGRSYETTTDCPNLQPYFSRCNSIRVESGCWMLYERPNYQGQQYLLRRGEYPDYQQWDGLSDSIRSC [M67D] | -0.106 ± 0.15
28 | ITFYEDRAFQGRSYETTTDCPNLQPYFSRCNSIRVESGCWMLYERPNYQGQQYLLRRGEYPDYQQWHGLSDSIRSC [M67H] | -0.01 ± 0.25
29 | ITFYEDRAFQGRSYETTTDCPNLQPYFSRCNSIRVESGCWMLYERPNYQGQQYLLRRGEYPDYQQWYGLSDSIRSC [M67Y] | -0.067 ± 0.096
30 | ITFYEDRAFQGRSYETTTDCPNLQPYFSRCNSIRVESGCWMLYERPNYQGQQYLLRRGEYPDYQQWNGLSDSIRSC [M67N] | -0.065 ± 0.17
31 | ITFYEDRAFQGRSYETTTDCPNLQPYFSRCNSIRVESGCWMLYERPNYQGQQYLLRRGEYPDYQQWCGLSDSIRSC [M67C] | -0.173 ± 0.12
32 | ITFYEDRAFQGRSYETTTDCPNLQPYFSRCNSIRVESGCWMLYERPNYQGQQYLLRRGEYPDYQQWSGLSDSIRSC [M67S] | -0.057 ± 0.11
33 | ITFYEDRAFQGRSYETTTDCPNLQPYFSRCNSIRVESGCWMLYERPNYQGQQYLLRRGEYPDYQQWPGLSDSIRSC [M67P] | -0.057 ± 0.069
34 | ITFYEDRAFQGRSYETTTDCPNLQPYFSRCNSIRVESGCWMLYERPNYQGQQYLLRRGEYPDYQQWWGLSDSIRSC [M67W] | 0.044 ± 0.087
35 | ITFYEDRAFQGRSYETTTDCPNLQPYFSRCNSIRVESGCWMLYERPNYQGQQYLLRRGEYPDYQQWLGLSDSIRSC [M67L] | -0.011 ± 0.053
36 | ITFYEDRAFQGRSYETTTDCPNLQPYFSRCNSIRVESGCWMLYERPNYQGQQYLLRRGEYPDYQQWVGLSDSIRSC [M67V] | 0.008 ± 0.073
